Patent publication US8663655B2, “Method for transforming a bacterium belonging to the Streptococcus genus by natural competence” (Dupont Nutrition Biosciences APS, dated 2014)
Like-named read-outs stand apart in the source and are kept apart here.

T1: transcriptional regulator (Rgg) STER-0316 (Streptococcus thermophilus LMD-9)
T1 chain: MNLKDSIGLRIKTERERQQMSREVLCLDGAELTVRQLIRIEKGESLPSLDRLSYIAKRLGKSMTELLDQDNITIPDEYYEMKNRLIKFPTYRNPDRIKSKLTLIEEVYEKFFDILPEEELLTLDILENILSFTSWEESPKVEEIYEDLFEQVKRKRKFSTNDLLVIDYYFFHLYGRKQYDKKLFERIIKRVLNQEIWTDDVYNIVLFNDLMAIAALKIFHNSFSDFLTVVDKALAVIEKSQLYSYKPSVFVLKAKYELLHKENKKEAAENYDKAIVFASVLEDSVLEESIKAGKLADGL

B1: synthetic peptide ILPYFAG (peptide)
peptide: ILPYFAG
B2: synthetic peptide PYFAGCL (peptide)
peptide: PYFAGCL
B3: synthetic peptide LPYFAGCL (peptide)
peptide: LPYFAGCL
B4: synthetic peptide ILPYFAGCL (peptide)
peptide: ILPYFAGCL
B5: synthetic peptide PYFAGC (peptide)
peptide: PYFAGC
B6: synthetic peptide PYFAG (peptide)
peptide: PYFAG
B7: synthetic peptide AILPYFAGCL (peptide)
peptide: AILPYFAGCL
B8: synthetic peptide ILPYFAGC (peptide)
peptide: ILPYFAGC
B9: synthetic peptide AILPYFAGC (peptide)
peptide: AILPYFAGC
B10: synthetic peptide LPYFAGC (peptide)
peptide: LPYFAGC

Columns and labels:
[1] = target: STER-0316 homologue of S. thermophilus CNRZ1066 (Streptococcus thermophilus CNRZ1066)
[2] = target: T1, transcriptional regulator (Rgg) …; assay: cell-based or functional assay
[3] = target: STER-0316 homologue of S. thermophilus LMG18311 (Streptococcus thermophilus LMG18311)
[4] = target: STER-0316 homologue of S. thermophilus CNRZ1066 (Streptococcus thermophilus CNRZ1066); remark: listed apart in the source
[5] = target: STER-0316 homologue of S. thermophilus LMG18311 (Streptococcus thermophilus LMG18311); remark: listed apart in the source
[6] = target: STER-0316 homologue of S. thermophilus CNRZ1066 (Streptococcus thermophilus CNRZ1066); remark: listed apart in the source

Row | Molecule | Transformation rate with peptide addition (1 µM) [2] | other results
1 | synthetic peptide PYFTGCL |  | Transformation rate of S. thermophilus CNRZ1066 with peptide addition (1 µM) [1]: 3.48e-07
2 | B1 | < 1e-08 | 
3 | B2 | 0.00478 | Transformation rate of S. thermophilus LMG18311 with peptide addition (1 µM) [3]: 0.000317; Transformation rate of S. thermophilus CNRZ1066 with peptide addition (1 µM) [4]: 0.000369
4 | B3 | 0.00318 | Transformation rate of S. thermophilus LMG18311 with peptide addition (1 µM), donor pGIUD0855cat [5]: 0.13; Transformation rate of S. thermophilus CNRZ1066 with peptide addition (1 µM), donor pGIUD0855cat [6]: 0.03
5 | B4 | 0.00342 | 
6 | B5 | < 1e-08 | 
7 | B6 | < 1e-08 | 
8 | B7 | 0.00221 | 
9 | B8 | < 1e-08 | 
10 | B9 | < 1e-08 | 
11 | B10 | < 1e-08 | 
